# Data: IntAct's records for PubMed 9468139
# B1: Retinoblastoma-associated protein (Homo sapiens), P06400 (parent)
# chain: MPPKTPRKTAATAAAAAAEPPAPPPPPPPEEDPEQDSGPEDLPLVRLEFEETEEPDFTALCQKLKIPDHVRERAWLTWEKVSSVDGVLGGYIQKKKELWGICIFIAAVDLDEMSFTFTELQKNIEISVHKFFNLLKEIDTSTKVDNAMSRLLKKYDVLFALFSKLERTCELIYLTQPSSSISTEINSALVLKVSWITFLLAKGEVLQMEDDLVISFQLMLCVLDYFIKLSPPMLLKEPYKTAVIPINGSPRTPRRGQNRSARIAKQLENDTRIIEVLCKEHECNIDEVKNVYFKNFIPFMNSLGLVTSNGLPEVENLSKRYEEIYLKNKDLDARLFLDHDKTLQTDSIDSFETQRTPRKSNLDEEVNVIPPHTPVRTVMNTIQQLMMILNSASDQPSENLISYFNNCTVNPKESILKRVKDIGYIFKEKFAKAVGQGCVEIGSQRYKLGVRLYYRVMESMLKSEEERLSIQNFSKLLNDNIFHMSLLACALEVVMATYSRSTSQNLDSGTDLSFPWILNVLNLKAFDFYKVIESFIKAEGNLTREMIKHLERCEHRIMESLAWLSDSPLFDLIKQSKDREGPTDHLESACPLNLPLQNNHTAADMYLSPVRSPKKKGSTTRVNSTANAETQATSAFQTQKPLKSTSLSLFYKKVYRLAYLRLNTLCERLLSEHPELEHIIWTLFQHTLQNEYELMRDRHLDQIMMCSMYGICKVKNIDLKFKIIVTAYKDLPHAVQETFKRVLIKEEEYDSIIVFYNSVFMQRLKTNILQYASTRPPTLSPIPHIPRSPYKFPSSPLRIPGGNIYISPLKSPYKISEGLPTPTKMTPRSRILVSIGESFGTSEKFQKINQMVCNSDRVLKRSAEGSNPPKPLKKLRFDIEGSDEADGSKHLPGESKFQQKLAEMTSTRTRMQKQKMNDSMDTSNKEEK
# Variants of: B1
# Conditions: with hdac1_human HDAC1, Q13547
# hdac1_human HDAC1, Q13547, sequence (Q13547 whole entry): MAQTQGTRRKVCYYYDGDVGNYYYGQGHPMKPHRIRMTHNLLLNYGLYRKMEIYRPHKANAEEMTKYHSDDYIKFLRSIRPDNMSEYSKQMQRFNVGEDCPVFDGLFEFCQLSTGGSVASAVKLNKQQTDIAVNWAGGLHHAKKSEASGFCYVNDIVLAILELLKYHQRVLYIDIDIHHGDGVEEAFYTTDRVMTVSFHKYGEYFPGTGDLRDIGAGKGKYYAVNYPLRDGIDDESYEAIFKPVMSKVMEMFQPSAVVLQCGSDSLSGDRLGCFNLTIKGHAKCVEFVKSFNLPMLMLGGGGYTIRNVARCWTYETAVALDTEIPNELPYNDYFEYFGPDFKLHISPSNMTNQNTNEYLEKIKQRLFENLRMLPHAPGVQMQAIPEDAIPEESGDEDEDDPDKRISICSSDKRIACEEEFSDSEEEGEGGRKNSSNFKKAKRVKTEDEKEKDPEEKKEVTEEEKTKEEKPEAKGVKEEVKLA
row,Variant,effect of a mutation on the interaction
1,C706F,decreasing interaction
